In patent publication US8129336B1, “Inhibitor of the uracil-DNA glycosylase enzyme and uses thereof” (Consejo Superior de Investigaciones Cientificas, priority 2005, dated 2012):
Entries after “also recorded” stand apart in the source; their conditions may differ.

T1: UDG of B. subtilis (Bacillus subtilis, UniProt P39615)
T1 construct: endogenous in cells; host or cells: B. subtilis 110NA [pPR53.p56FLAG] lysate; UDG is the cell's own protein; only p56FLAG is plasmid-encoded
T1 sequence (P39615 whole entry, looked up): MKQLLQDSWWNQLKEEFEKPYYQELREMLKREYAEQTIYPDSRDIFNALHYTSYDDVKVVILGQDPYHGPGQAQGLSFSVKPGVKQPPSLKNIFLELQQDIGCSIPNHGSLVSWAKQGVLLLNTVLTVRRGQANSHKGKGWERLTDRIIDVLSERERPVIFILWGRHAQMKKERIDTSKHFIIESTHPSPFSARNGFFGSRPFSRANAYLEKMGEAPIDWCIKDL

B1: p56FLAG: p56 protein that contains amino acid sequence DYKDDDDK (FLAG peptide) fused to the C-terminal end (protein)
chain: MVQNDFVDSYDVTMLLQDDDGKQYYEYHKGLSLSDFEVLYGNTADEIIKLRLDKVLDYKDDDDK
B2: UGI: UGI protein encoded by the PBS2 bacteriophage, known inhibitor of UDG (protein, UniProt P14739 1-84, looked up)
Uracil-DNA glycosylase …: MTNLSDIIEKETGKQLVIQESILMLPEEVEEVIGNKPESDILVHTAYDESTDENVMLLTSDAPEYKPWALVIQDSNGENKIKML

Experiments:
[1] = biological target: T1, UDG of B. subtilis; test: Affinity chromatography on anti-FLAG M2 column, co-elution with p56FLAG; type: binding; details: extract of B. subtilis 110NA[pPR53.p56FLAG]; elution with FLAG peptide; peptide mass fingerprinting
Method: In order to analyse whether the UDG enzyme is a cellular target of protein p56, affinity chromatography assays were performed. Briefly, the B. subtilis 110NA [pPR53.p56FLAG] strain was grown in LB medium with phleomycin (0.8 μg/ml) at 30° C. to an OD560 equivalent to 10^8 viable cells per ml. The culture was concentrated 10-fold in TBS buffer (50 mM Tris-HCl, pH 7.5, 150 mM NaCl) and was lysed using the French press (20,000 psi). The lysate was centrifuged at 7,000 rpm and 4° C. in the Sorvall-SS.34 rotor for 10 minutes. The supernatant was loaded in an anti-FLAG M2 column (Sigma). The proteins bound to the column were eluted with the TBS buffer containing the FLAG peptide (500 μg/ml) (Sigma). The eluted proteins were precipitated with acetone, re-suspended in the loading buffer (60 mM Tris-HCl, pH 6.8, 2% SDS, 5% β-mercaptoethanol, 30% glycerol) and separated by electrophoresis in polyacrylamide/Tricine/SDS gels (Schagger and von Jagow (1987) Anal. Biochem. 166: 368-379). The gel was stained with SyproRuby (Molecular Probes). As a negative control, an extract from the 110NA[pPR53] strain was used. In a second experiment, protein p56 (2 μg) was incubated with the UDG enzyme of E. coli (0.2 μg, New England Biolabs). After 15 minutes at ambient temperature, the reaction was analysed by electrophoresis in native polyacrylamide gels (16%). The gel was stained with SpyroRuby.

[2] = biological target: human UNG2 enzyme (Homo sapiens, UniProt P13051); details: cited from earlier work
Sequence of human UNG2 enzyme (P13051 whole entry): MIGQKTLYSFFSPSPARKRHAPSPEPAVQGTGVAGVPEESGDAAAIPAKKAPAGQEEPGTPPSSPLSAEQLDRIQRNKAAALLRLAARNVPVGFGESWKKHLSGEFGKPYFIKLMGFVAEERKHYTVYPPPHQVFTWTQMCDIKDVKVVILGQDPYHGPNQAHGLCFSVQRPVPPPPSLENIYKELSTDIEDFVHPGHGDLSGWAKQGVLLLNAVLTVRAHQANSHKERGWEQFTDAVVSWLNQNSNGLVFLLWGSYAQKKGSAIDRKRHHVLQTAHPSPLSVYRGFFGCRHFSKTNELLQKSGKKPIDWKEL

Molecule | interaction / co-elution with UDG enzyme [1] | blocking of UDG activity of human UNG2 [2]
B1 | protein D was identified to be the UDG enzyme; also recorded: interacts with the UDG enzyme | –
B2 | – | blocks the UDG activity of the human UNG2 enzyme
